What follows are sequences tested on Escherichia coli TOP10 (assay: shrunken log2 fold change of peptide-encoding DNA abundance (4.5 h post-induction vs induction); higher = less antimicrobial activity (less host growth inhibition)). Conditions: time post-induction: 4.5 h; library: site-saturation at positions 5, 18, 19, 20.
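Also: peptides expressed intracellularly from a pBAD plasmid library in pooled LB shake-flask culture, induced with 0.3% L-arabinose, DNA abundance read by NGS, three biological replicates, DESeq2 with apeglm shrinkage.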

Row | Sequence | shrunken log2 fold change
1 | RRIRSRPPRLPRPRPRPMTGPRP | 0.00381
2 | RRIRQRPPRLPRPRPRPQCPPRP | -0.229
3 | RRIRRRPPRLPRPRPRPWHSPRP | -0.254
4 | RRIRCRPPRLPRPRPRPLSQPRP | 0.0133
5 | RRIRKRPPRLPRPRPRPNKAPRP | 0.0692
6 | RRIRERPPRLPRPRPRPSACPRP | 0.0132
7 | RRIRNRPPRLPRPRPRPDYWPRP | -0.21
8 | RRIRVRPPRLPRPRPRPFVCPRP | -0.744
9 | RRIRGRPPRLPRPRPRPWEYPRP | -0.00088
10 | RRIRNRPPRLPRPRPRPNTKPRP | -0.306
11 | RRIRHRPPRLPRPRPRPYLLPRP | -0.611
12 | RRIRWRPPRLPRPRPRPFIFPRP | -0.0639
13 | RRIRYRPPRLPRPRPRPEWWPRP | -0.0484
14 | RRIRGRPPRLPRPRPRPWKQPRP | 0.152
15 | RRIRKRPPRLPRPRPRPHKRPRP | 0.434
16 | RRIRQRPPRLPRPRPRPDRAPRP | 0.12
17 | RRIRLRPPRLPRPRPRPDCLPRP | -0.0212
18 | RRIRGRPPRLPRPRPRPNSEPRP | 0.295
19 | RRIRQRPPRLPRPRPRPQLDPRP | 0.188
20 | RRIRFRPPRLPRPRPRPHCTPRP | -0.268
21 | RRIRKRPPRLPRPRPRPLGNPRP | 0.094
22 | RRIRRRPPRLPRPRPRPIGFPRP | 0.0265
23 | RRIRPRPPRLPRPRPRPMPNPRP | 0.156
24 | RRIRMRPPRLPRPRPRPWLRPRP | 0.0433
25 | RRIRFRPPRLPRPRPRPLPIPRP | 0.165

Row | Sequence | shrunken log2 fold change
26 | RRIRTRPPRLPRPRPRPHMKPRP | -0.712
27 | RRIRSRPPRLPRPRPRPSSWPRP | 0.206
28 | RRIRCRPPRLPRPRPRPFDTPRP | -0.192
29 | RRIRYRPPRLPRPRPRPVPLPRP | -0.17
30 | RRIRKRPPRLPRPRPRPLGPPRP | 0.749
31 | RRIRYRPPRLPRPRPRPLIVPRP | -0.895
32 | RRIRIRPPRLPRPRPRPNRCPRP | -0.154
33 | RRIRLRPPRLPRPRPRPNLYPRP | -0.38
34 | RRIRRRPPRLPRPRPRPPGAPRP | 0.972
35 | RRIRIRPPRLPRPRPRPALNPRP | -0.484
36 | RRIRFRPPRLPRPRPRPICAPRP | 0.0631
37 | RRIRRRPPRLPRPRPRPEEPPRP | 0.24
38 | RRIRSRPPRLPRPRPRPLQTPRP | 0.436
39 | RRIRMRPPRLPRPRPRPHVIPRP | 0.00402
40 | RRIRNRPPRLPRPRPRPHYVPRP | -0.121
41 | RRIRFRPPRLPRPRPRPQNIPRP | -0.411
42 | RRIRERPPRLPRPRPRPGRYPRP | -0.443
43 | RRIRLRPPRLPRPRPRPNEFPRP | -0.168
44 | RRIRQRPPRLPRPRPRPVNTPRP | -0.0633
45 | RRIRDRPPRLPRPRPRPYCYPRP | -0.125
46 | RRIRPRPPRLPRPRPRPMKIPRP | 0.0483
47 | RRIRTRPPRLPRPRPRPNRFPRP | -0.00879
48 | RRIRERPPRLPRPRPRPPWGPRP | 0.285
49 | RRIRHRPPRLPRPRPRPFIWPRP | -0.162
50 | RRIRLRPPRLPRPRPRPGGDPRP | 0.152

Row | Sequence | shrunken log2 fold change
51 | RRIRTRPPRLPRPRPRPCARPRP | -0.187
52 | RRIRARPPRLPRPRPRPYNQPRP | -0.306
53 | RRIRERPPRLPRPRPRPSCPPRP | -0.361
54 | RRIRTRPPRLPRPRPRPVGHPRP | -0.00107
55 | RRIRIRPPRLPRPRPRPWNIPRP | -0.0297
56 | RRIRNRPPRLPRPRPRPSDRPRP | -0.0382
57 | RRIRYRPPRLPRPRPRPHLKPRP | -0.452
58 | RRIRRRPPRLPRPRPRPNGWPRP | 0.282
59 | RRIRIRPPRLPRPRPRPKQQPRP | 0.0512
60 | RRIRERPPRLPRPRPRPMVTPRP | -0.0939
61 | RRIRNRPPRLPRPRPRPKYQPRP | -0.0997
62 | RRIRVRPPRLPRPRPRPYAHPRP | -0.38
63 | RRIRIRPPRLPRPRPRPLDTPRP | -0.142
64 | RRIRKRPPRLPRPRPRPKCSPRP | 0.00677
65 | RRIRGRPPRLPRPRPRPIQLPRP | 0.043
66 | RRIRNRPPRLPRPRPRPNAFPRP | -0.126
67 | RRIRIRPPRLPRPRPRPVEDPRP | -0.158
68 | RRIRARPPRLPRPRPRPVMLPRP | -0.19
69 | RRIRWRPPRLPRPRPRPWQQPRP | -0.01
70 | RRIRRRPPRLPRPRPRPIPWPRP | 0.312
71 | RRIRDRPPRLPRPRPRPNETPRP | -0.023
72 | RRIRKRPPRLPRPRPRPWGGPRP | 0.407
73 | RRIRSRPPRLPRPRPRPGLVPRP | 0.275
74 | RRIRTRPPRLPRPRPRPLIAPRP | 0.112
75 | RRIRERPPRLPRPRPRPLWMPRP | 0.00675

From the supplement of paper PMC9112550, “Optimization of the antimicrobial peptide Bac7 by deep mutational scanning” (BMC Biology, 2022)
